Measured values reported in the supplement of paper PMC10567573.
± gives the standard deviation.

Assay: protein stability index of a GFP-peptide fusion (GPS, HEK-293T) (PSI 1-6); higher = more stable
[1] = treatment: DMSO, c terminus: a fixed tail appended
[2] = treatment: MLN4924 1 uM, 8 h, c terminus: a fixed tail appended
[3] = treatment: DMSO, c terminus: native
[4] = treatment: MLN4924 1 uM, 8 h, c terminus: native
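Further: 24-mer peptide tiles fused after GFP, lentivirally expressed, FACS-sorted into six equal bins by GFP/DsRed ratio, decoded by Illumina sequencing, PSI is the read-weighted mean bin number.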

Sequence	protein stability index [1]	protein stability index [2]	protein stability index [3]	protein stability index [4]
KGALQKKPLYVAFSFMYILVGLTV [KCNK9]	3.46 ± 0.47	2.85 ± 0.51	–	–
ESKLLRDLSAANEKNLLLQNQVDE [LRRC45]	5.37 ± 0.2	5.15 ± 0.34	–	–
ELVLPFQELQIDDNEYAYLKAIIF [HNF4A]	2.16 ± 0.14	2.37 ± 0.35	–	–
VKMALDIEIATYRKLLEGEESRIS [PRPH]	2.61 ± 0.13	2.7 ± 0.39	–	–
AEQEPTRKLFEVESVTHHDYRMEL [SPAG8]	4.16 ± 0.16	4.33 ± 0.18	–	–
SPSESSETVLALVNCISPLKYFSD [DENND6A]	2.78 ± 0.3	2.8 ± 0.35	–	–
DAQGSEMVTCKSEFYHDEFKRWIY [GAN]	2.61 ± 0.46	2.52 ± 0.13	–	–
FHCSMSPGNLEKNRYGDVPCLDQT [PTPN9]	2.79 ± 0.51	2.82 ± 0.47	–	–
VAGMPTAYDLSSVIASGSSVGHNN [CARM1]	3.86 ± 0.19	3.86 ± 0.23	–	–
KAKHFKCHICHKKLYTGPGLAIHC [ZNF207]	2.33 ± 0.23	2.62 ± 0.76	–	–
TVAAETRAVIAWMEKIPFVLGGNL [CPXM2]	2.56 ± 0.86	2.71 ± 0.6	–	–
LEELGTLNVFQTVSRMRTQRAFSI [PTPN9]	2.48 ± 0.12	2.23 ± 0.17	–	–
RKLSSAVRSGIVEYLSLVKGGQDV [PRIM1]	2.68 ± 0.36	2.77 ± 0.36	–	–
TIKPRRVEPVCSGLQAQILHCYRD [CHCHD6]	2.98 ± 0.051	2.98 ± 0.21	–	–
GPSRPAEKPPRPEAKSAQPADGWK [GCH1]	5.17 ± 0.082	5.16 ± 0.18	–	–
EKPLGRVGVFLDFESGSVSFLNVT [TRIM43]	2.28 ± 0.33	2.17 ± 0.55	–	–
ILLEYCSRRSMAHILKARKVLTEP [PLK2]	2.48 ± 0.5	2.18 ± 0.33	–	–
GHHLLKWIIKSNYQGLPVRCVKSI [SRPK2]	2.2 ± 0.56	2.33 ± 0.34	–	–
AGREVFDYSHRQKEQDVEKELRDG [NFE2L1]	4.99 ± 0.25	5.53 ± 0.52	–	–
YTVLGDTLIDGGEHYWEVRYEPDS [FSD1]	3.02 ± 0.2	2.97 ± 0.34	–	–
KEYAAKFIKKRRLSSSRRGVSREE [DAPK3]	4.15 ± 0.15	4.379 ± 0.041	–	–
QEELTRINQSFTGAERKAALCELL [IQUB]	3.41 ± 0.28	3.63 ± 0.17	–	–
DFFWNETWYLKTIDICHDHFGWYL [DHCR7]	3.26 ± 0.74	2.81 ± 0.35	–	–

Sequence	protein stability index [1]	protein stability index [2]	protein stability index [3]	protein stability index [4]
KLKLVALHKQVLMGPYNPDTCPEV [ACBD3]	2.38 ± 0.28	2.72 ± 0.32	–	–
SPKRQLQFYRNLGKSGLRVSCLGL [KCNAB2]	2.3 ± 0.41	2.18 ± 0.12	–	–
KWTACSRSCGGGVTSQERHCLQQR [ADAMTSL2]	2.75 ± 0.51	3.37 ± 0.59	–	–
GHEGSVSSCHFARDSSFLISGGFD [WDR88]	2.98 ± 0.33	3.1 ± 0.13	–	–
LQFTILLSLIGVRVDVDTYLTSQL [NFE2L1]	2.97 ± 0.47	3.13 ± 0.27	–	–
ALSFTLLGSAPLDQEPLLSIDLGT [NEK8]	2.29 ± 0.36	2.44 ± 0.23	–	–
STLKKALPTLSHIQEAQSAWKDDF [YJU2B]	3.53 ± 0.36	3.75 ± 0.09	–	–
PGGGDICMYRHALPPGFVLKKDKK [ZC3H15]	4.29 ± 0.2	4.04 ± 0.1	–	–
DEDEVAAEEPNAAVPDEIPPLEGD [HSP90AB1]	5.49 ± 0.47	5.61 ± 0.24	–	–
HHSTQPKRNKRNPIFQDSQDTEVF [FAM104B]	4.19 ± 0.34	4.63 ± 0.27	–	–
QVEKNKYDASAIDFSRCDMDGATL [ELF3]	4.63 ± 0.23	4.58 ± 0.14	–	–
GGNDLCVWNRKLDLLCKTSHLSDT [WDR41]	3.16 ± 0.39	3.05 ± 0.18	–	–
KSFSMANGMNAVMMHGRSYSLASG [RAB40C]	3.08 ± 0.26	3.03 ± 0.098	–	–
GFSPIIGRFCGQQNPPVIKSSGRF [NETO1]	2.42 ± 0.29	2.52 ± 0.75	–	–
TIKKRLENNYYWSASECMQDFNTM [BRD3]	2.08 ± 0.47	2.15 ± 0.43	–	–
MNEVEKTMEYSMVGRTVLDMLIRE [RSPH3]	2.59 ± 0.56	2.16 ± 0.22	–	–
FSTDAFSSPPQGASPVPESSLTAD [SNAP91]	3.65 ± 0.57	4.25 ± 0.43	–	–
SLSAALLTAALLTFDTGCLTLSQY [POMT2]	3.29 ± 0.32	3.11 ± 0.43	–	–
LQLLQSRTSRKFLACRLTPDMETK [INTS3]	2.69 ± 0.18	2.68 ± 0.2	–	–
DTKGKPTSRTQVYKPPALKKSNSP [ZC2HC1A]	4.89 ± 0.22	4.94 ± 0.18	–	–
YRVLLGHTLILMFIWFVCSLVYYG [SLC22A15]	2.32 ± 0.53	2.33 ± 0.57	–	–
ERNFWDPSPQLDTQQEIKLCQKSN [WDR41]	3.92 ± 0.34	3.94 ± 0.37	–	–
ACNFEPHESFFSLFSDPRSTRLTR [ZER1]	2.86 ± 0.22	2.92 ± 0.21	–	–

Sequence	protein stability index [1]	protein stability index [2]	protein stability index [3]	protein stability index [4]
HLVPEPDRLEEQLPWLSLRALKFR [DNAAF3]	2.63 ± 0.1	2.78 ± 0.26	–	–
LKDIHDDQDYLHSLGKARTAQVQK [FLOT1]	4.67 ± 0.18	4.56 ± 0.24	–	–
LSFYNARTKQVLHTFKTRFTQPLL [FSD1]	2.45 ± 0.6	2.43 ± 0.6	–	–
EAMLYHNQTAELRELLEFTHMYLQ [P3H4]	2.48 ± 0.37	2.69 ± 0.62	–	–
AAGEPLECPTCGHSYNVTQRRPRV [RNF208]	3.79 ± 0.16	4.18 ± 0.21	–	–
VLDILTEQREWVLKSSILIAMAVY [INTS3]	2.57 ± 0.33	2.48 ± 0.61	–	–
KGAPASWWNHMHFQHHAKPNCFRK [FADS1]	2.87 ± 0.18	3.01 ± 0.43	–	–
TTSTLKAWLNEHRKNPYPTKGEKI [IRX6]	3.13 ± 0.44	3.37 ± 0.16	–	–
SKLASNGTPMGTFAPLWEVFRVSS [FCHO1]	2 ± 0.3	2.26 ± 0.22	–	–
GYELGIISGALLQIKTLLALSCHE [SLC2A12]	3.61 ± 0.26	3.71 ± 0.1	–	–
RGYPPPRDSYSSSSRGAPRGGGRG [RBMX]	5.12 ± 0.36	5.3 ± 0.23	–	–
NATDPDEGTNGQLDYSFGDHTSEA [PCDHGC5]	5.45 ± 0.32	5.24 ± 0.12	–	–
CSYVVTRTISCHVQNGTYLQRVLQ [EMID1]	2.44 ± 0.53	2.6 ± 0.36	–	–
VHRGDGANPFQAYLDVDLTLTREQ [RTN2]	3.88 ± 0.088	3.82 ± 0.25	–	–
AAGGVPGGGSNNGKTPVCHQCHKV [PDLIM7]	3.32 ± 0.62	3.85 ± 0.56	–	–
RTSPSCAFRSDDTKGHPRAVSQPF [CDC14A]	3.57 ± 0.22	3.62 ± 0.37	–	–
WRFVLQRLVFLAAFVVYLETETLV [TSN]	2.68 ± 0.54	3.66 ± 0.17	–	–
GQRQPPPSEPTQGPEIVPRGAGP [DNAJC4]	–	–	5.28 ± 0.51	5.49 ± 0.2
SYYIIQHKPKNSEELYKEIDGVAT [PTPRD]	2.98 ± 0.4	3.18 ± 0.66	–	–
ILAVSFAPLVQPSKNDNGKPDSVG [PCMTD1]	2.98 ± 0.27	3.14 ± 0.35	–	–
SGYGFRPSMVSGGYVANSSNCISG [KRT71]	2.82 ± 0.2	2.73 ± 0.16	–	–
NDRLYAIGGNHLKGFSHLDVMLVE [KLHL14]	2.35 ± 0.33	2.58 ± 0.17	–	–
GLLQYGSTVKNEFSLKTFKRKSEV [MATN2]	3.02 ± 0.25	3.07 ± 0.35	–	–

Sequence	protein stability index [1]	protein stability index [2]	protein stability index [3]	protein stability index [4]
RRHLQFWKSHLKKVQKPLLQAPFL [RHOBTB1]	2.14 ± 0.51	1.59 ± 0.26	–	–
NIMGIENICELAARMLFSAVEWAR [NR2F2]	3.04 ± 0.18	2.79 ± 0.25	–	–
KNGLPSPERSYVFNGDFVDRGKDS [PPEF2]	4.7 ± 0.079	4.76 ± 0.18	–	–
MDVERQETPEWLDSDSCQKCDQPF [WDFY2]	5.11 ± 0.25	5.08 ± 0.15	–	–
LRSSDLYRHQRLHTGERPYECTVC [ZNF449]	3.05 ± 0.17	3.17 ± 0.29	–	–
RGDGGIYIGSIMKGGAVAADGRIE [DVL3]	3.65 ± 0.18	3.75 ± 0.21	–	–
VDEVSVSLRLWDTFGDHHKDRRFA [RHOBTB1]	3.01 ± 0.1	3.08 ± 0.2	–	–
LWLTASQPCSIVDVEFLPVYHPSP [LPCAT4]	3.02 ± 0.74	2.53 ± 0.37	–	–
QARLLNPSATRAKPGPQDTVERPF [NOP53]	4.78 ± 0.24	4.85 ± 0.14	–	–
VMRMLGQTPTKEELDAIIEEVDED [TNNC2]	5.41 ± 0.28	5.34 ± 0.27	–	–
QLIDPDENKENEAFEFKKPVRPVS [CDC25A]	3.59 ± 0.41	4.03 ± 0.27	–	–
IDRQKCMAHRTRYPTILQLAGYQ [TEKT4]	–	–	2.26 ± 0.37	2.14 ± 0.35
QILYESCPKYKFISCPTCRRETVL [RNF208]	2.15 ± 0.32	2.23 ± 0.28	–	–
LNPSKLMEKEINGSKVTCRGLLEY [ATL3]	2.92 ± 0.29	2.96 ± 0.2	–	–
QEKKILELEKLAEKNIILEEKIQV [MTUS2]	4.3 ± 0.28	4.29 ± 0.17	–	–
IQSGAWVCYQYPGYRGYQYILECD [CRYBA1]	2.39 ± 0.38	2.58 ± 0.59	–	–
KTIKRPFGVKYNPYTRSIQILKDT [TPH1]	2.35 ± 0.2	2.19 ± 0.22	–	–
ARQHALYIWEKSIGNLVKILHGTR [RBBP5]	2.26 ± 0.36	2.5 ± 0.41	–	–
SAESSGCNSHMPYGYAAQARARER [KCNA4]	4.43 ± 0.35	4.63 ± 0.2	–	–
GVGKSAMTMQFISHRFPEDHDPTI [RIT1]	3.4 ± 0.24	3.46 ± 0.37	–	–
